Experimental data taken from patent publication US20190194253A1 (ARIEL UNIVERSITY RESEARCH AND DEVELOPMENT, published 2019).
Bridge positions count the residues as written; N and C are the ends. Ends that are not written are not given here.

Key:
bovine serum albumin [1] = molecular target: T1, bovine serum albumin (bovine, UniProt P02769 25-607); experiment: FITC-labeled peptide added for 30 min to BSA-coated wells, fluorescence plate reader
T1 construct: Control protein coated on wells; also called BSA
Method: FIG. 7 is a graph illustrating binding of Fluorescein (FITC)—labeled ALOS peptides to purified Integrin αvβ3, collagen (CG) and bovine serum albumin (BSA). Peptides (concentrations 100 uM, 30 uM, 10 uM, luM) were added to integrin pre-coated wells for 30 min. The fluorescence was measured using Enspire plate reader (PerkinElmer). The plots were built using nonlinear regression analysis (GraphPad Prism).
Binding assay: The binding of peptides to immobilized purified integrin alpha-v-beta3 was evaluated using a fluorescein (FITC) labeled peptides. Purified integrin alpha-v-beta3 was first immobilized onto high-protein binding 96-well plates for 2 hour at 37° C. followed by blocking for two hours with 5% fat dry milk in TBS. After that, plates were washed four times with 200 μl TBS. a) For saturation assays plates were incubated with 100 μl of FITC-labeled peptides solutions in 0.01% BSA in Saline for 30 min at RT. B) For competition assays plates were incubated with different concentrations of unlabeled peptides for 30 min in RT followed by addition of fixed concentration of FITC-labeled peptides and additional incubation for 30 min. Wells were washed twice with TBS. After second wash 100 μl of TBS was added to the each well and fluorescence signal was read at excitation 490 nm and emission 525 nm using Enspire Plate reader (PerkinElmer). Binding data analysis was performed using Prism software (GraphPad Software, San Diego, Calif.). Binding curves were fit using nonlinear regression approaches.

purified Integrin αvβ3 [2] = molecular target: T2, purified Integrin αvβ3 (UniProt P06756 31-992; P05106 27-718, limits assumed); experiment: saturation binding: ALOS4-FITC in wells pre-coated with integrin αvβ3, % of total binding
T2 construct: Purified integrin coated on 96-well plates; also called integrin alpha-v-beta3; αVβ3 integrin
Method: (§1) FIGS. 12A-12D illustrate selective binding of ALOS4 to αvβ3. (A) ALOS4-FITC binding in wells pre-coated with integrin αvβ3. […] (B) ALOS4-FITC binding in wells coated with collagen or BSA. (C) Binding of random, FTIC-labeled cyclic peptide controls (DPDFP and DSLFP) in wells pre-coated with integrin αvβ3. (D) Competitive homologous binding of ALOS4 to αvβ3 integrin. 10 μM of ALOS4-FITC peptide was incubated with different concentrations of unlabeled ALOS4 on wells pre-coated with αvβ3. […] Data are expressed as percent reduction of maximal fluorescence signal.
(§2) Binding assay: The binding of peptides to immobilized purified integrin alpha-v-beta3 was evaluated using a fluorescein (FITC) labeled peptides. Purified integrin alpha-v-beta3 was first immobilized onto high-protein binding 96-well plates for 2 hour at 37° C. followed by blocking for two hours with 5% fat dry milk in TBS. After that, plates were washed four times with 200 μl TBS. a) For saturation assays plates were incubated with 100 μl of FITC-labeled peptides solutions in 0.01% BSA in Saline for 30 min at RT. […] After second wash 100 μl of TBS was added to the each well and fluorescence signal was read at excitation 490 nm and emission 525 nm using Enspire Plate reader (PerkinElmer). […]

bovine serum albumin [3] = molecular target: T1, bovine serum albumin; experiment: ALOS4-FITC in wells coated with BSA, % of total binding
Method: as §1, §2

purified Integrin αvβ3 [4] = molecular target: T2, purified Integrin αvβ3; experiment: saturation binding of ALOS4-FITC in wells pre-coated with integrin αvβ3, fluorescence, nonlinear regression; direct saturation binding of ALOS4-FITC on αvβ3-coated wells (panel A)
Method: as §1, §2

bovine serum albumin [5] = molecular target: T1, bovine serum albumin; experiment: FITC-peptide saturation binding on coated wells, fluorescence plate reader
purified Integrin αvβ3 [6] = molecular target: T2, purified Integrin αvβ3; experiment: competitive homologous binding: varied unlabeled ALOS4 against 10 µM ALOS4-FITC on αvβ3-coated wells; competitive homologous binding, unlabeled ALOS4 against 10 µM ALOS4-FITC (panel D)
Method: as §1, §2

T2 sequence (P06756 31-992 limits assumed, chain 1 of 2): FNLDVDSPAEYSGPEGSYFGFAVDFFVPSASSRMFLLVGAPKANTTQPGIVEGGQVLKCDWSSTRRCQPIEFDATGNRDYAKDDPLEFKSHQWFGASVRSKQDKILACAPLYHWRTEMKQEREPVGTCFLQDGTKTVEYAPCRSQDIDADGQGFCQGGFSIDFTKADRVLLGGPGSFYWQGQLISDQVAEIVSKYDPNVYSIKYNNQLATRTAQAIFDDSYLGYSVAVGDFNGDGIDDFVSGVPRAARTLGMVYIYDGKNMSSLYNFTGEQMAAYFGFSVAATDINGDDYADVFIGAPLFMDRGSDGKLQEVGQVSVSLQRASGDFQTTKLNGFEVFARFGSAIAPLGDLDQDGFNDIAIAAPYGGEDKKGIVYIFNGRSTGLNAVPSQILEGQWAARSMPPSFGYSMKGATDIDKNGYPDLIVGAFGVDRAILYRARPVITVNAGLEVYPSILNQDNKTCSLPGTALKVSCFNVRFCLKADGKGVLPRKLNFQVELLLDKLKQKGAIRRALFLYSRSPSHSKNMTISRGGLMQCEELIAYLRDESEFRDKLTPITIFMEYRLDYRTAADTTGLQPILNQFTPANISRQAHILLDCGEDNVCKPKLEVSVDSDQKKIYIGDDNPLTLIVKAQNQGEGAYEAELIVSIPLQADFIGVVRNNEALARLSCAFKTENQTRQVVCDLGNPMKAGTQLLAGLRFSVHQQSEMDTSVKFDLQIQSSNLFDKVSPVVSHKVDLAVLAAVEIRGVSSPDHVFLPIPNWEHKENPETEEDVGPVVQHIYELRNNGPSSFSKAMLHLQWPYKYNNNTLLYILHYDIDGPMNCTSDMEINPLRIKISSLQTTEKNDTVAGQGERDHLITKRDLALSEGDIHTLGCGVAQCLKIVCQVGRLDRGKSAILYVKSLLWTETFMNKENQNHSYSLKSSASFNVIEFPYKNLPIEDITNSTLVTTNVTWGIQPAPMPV
T2 sequence (P05106 27-718 limits assumed, chain 2 of 2): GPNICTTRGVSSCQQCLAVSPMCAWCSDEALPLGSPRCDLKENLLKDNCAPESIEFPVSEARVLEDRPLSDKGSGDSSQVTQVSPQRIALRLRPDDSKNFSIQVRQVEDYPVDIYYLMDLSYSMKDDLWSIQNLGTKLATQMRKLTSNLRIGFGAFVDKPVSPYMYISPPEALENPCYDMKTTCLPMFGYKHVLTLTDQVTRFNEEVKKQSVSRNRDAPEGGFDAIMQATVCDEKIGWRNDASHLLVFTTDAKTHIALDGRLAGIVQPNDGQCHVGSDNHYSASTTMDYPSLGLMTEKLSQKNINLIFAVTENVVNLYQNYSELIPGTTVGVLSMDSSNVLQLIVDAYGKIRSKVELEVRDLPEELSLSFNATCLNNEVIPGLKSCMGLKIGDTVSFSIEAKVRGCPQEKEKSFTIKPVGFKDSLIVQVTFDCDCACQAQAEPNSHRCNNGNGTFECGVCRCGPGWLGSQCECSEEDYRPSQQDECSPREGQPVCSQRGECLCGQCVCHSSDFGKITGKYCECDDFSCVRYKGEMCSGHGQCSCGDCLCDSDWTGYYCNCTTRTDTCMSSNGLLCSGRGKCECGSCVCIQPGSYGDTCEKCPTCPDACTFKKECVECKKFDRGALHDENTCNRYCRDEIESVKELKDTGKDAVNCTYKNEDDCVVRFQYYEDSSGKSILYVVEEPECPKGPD
T1 sequence (P02769 25-607 limits assumed): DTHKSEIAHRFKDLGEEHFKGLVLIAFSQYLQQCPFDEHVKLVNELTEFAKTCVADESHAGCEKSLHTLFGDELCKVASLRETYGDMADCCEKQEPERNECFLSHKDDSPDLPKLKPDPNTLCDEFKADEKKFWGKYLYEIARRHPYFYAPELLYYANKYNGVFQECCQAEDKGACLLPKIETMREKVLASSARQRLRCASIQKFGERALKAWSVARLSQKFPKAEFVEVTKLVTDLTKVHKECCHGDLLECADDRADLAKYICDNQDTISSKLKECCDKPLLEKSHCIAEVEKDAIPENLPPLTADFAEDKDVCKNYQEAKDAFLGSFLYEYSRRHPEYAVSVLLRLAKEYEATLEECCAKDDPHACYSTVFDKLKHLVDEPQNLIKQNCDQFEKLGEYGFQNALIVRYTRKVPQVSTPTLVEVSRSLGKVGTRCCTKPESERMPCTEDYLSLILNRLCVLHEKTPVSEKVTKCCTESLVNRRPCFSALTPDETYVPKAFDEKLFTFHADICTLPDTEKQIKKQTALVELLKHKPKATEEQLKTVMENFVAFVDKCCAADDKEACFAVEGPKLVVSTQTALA

B1: ALOS-1, fluorescein (FITC)-labeled (peptide)
peptide: CNLSSSWIC
modifications: not fully specified (bridges); cysteine pairing not given here; also: FITC label, position not given here
notes: Synthetic peptide from the phage display screen; also called ALOS peptides; ALOSs
binding result (bovine serum albumin [1]): no binding (tested: 100 µM)

B2: ALOS-3, fluorescein (FITC)-labeled (peptide)
peptide: CAPSPSRLC
modifications: not fully specified (bridges); cysteine pairing not given here; also: FITC label, position not given here
notes: as for B1
binding result (bovine serum albumin [1]): no binding (tested: 100 µM)

B3: ALOS-4, fluorescein (FITC)-labeled (peptide)
peptide: CSSAGSLFC
modifications: disulfide 1-9 (inferred); also: FITC label, position not given here
notes: Synthetic peptide from the phage display screen; also called ALOS4-FITC; ALOS peptides
EC50 (read off the curve) (purified Integrin αvβ3 [2]): ~200 nM | binding result (bovine serum albumin [3]): no binding (tested: 100 µM) | Kd (purified Integrin αvβ3 [4]): 192 nM

B4: ALOS-5, fluorescein (FITC)-labeled (peptide)
peptide: CPLHARLPC
modifications: not fully specified (bridges); cysteine pairing not given here; also: FITC label, position not given here
notes: as for B1
binding result (bovine serum albumin [5]): no binding

B5: ALOS-2, fluorescein (FITC)-labeled (peptide)
peptide: CPPSNHLLC
modifications: not fully specified (bridges); cysteine pairing not given here; also: FITC label, position not given here
notes: as for B1
binding result (bovine serum albumin [1]): no binding (tested: 100 µM)

CSSAGSLFC (disulfide 1-9 (inferred), Its concentration was varied) [unlabeled ALOS4]
Kd (purified Integrin αvβ3 [6]): 2550 nM
